The source of these data is patent US20230382979A1 (ADAPTIVE BIOTECHNOLOGIES, published 2023).

In general, Kd refers to a measure of binding affinity in units of concentration. Read a high Kd as lower affinity. For orientation: EC50 (read off the curve) means the concentration giving half of the maximal effect. Low values mean an effect from little substance, high ones a need for much substance. Broadly, the EC50 is the concentration at which the effect is half-maximal. A low value points to a more potent agent. One may read the koff as the rate constant with which the complex falls apart. Higher therefore signals a short-lived complex. A word on the IC50: it is the concentration that gives 50% inhibition. Read a high IC50 as a need for much substance.

Positions count from the first letter of the chain named.

The chains are these.
B1: antibody 3995 (antibody, V domains shown)
VH: EVQLVQSGAEVKKPGSSVKVSCKASGGTFSMHTIRWVRQAPGQGLEWMGRIIPMLGIVNYAQKFQGRVTISADKSTSTAYMELSSLTSEDTAMYYCAKGSHDVFDIWGQGTMVTVSS
VL: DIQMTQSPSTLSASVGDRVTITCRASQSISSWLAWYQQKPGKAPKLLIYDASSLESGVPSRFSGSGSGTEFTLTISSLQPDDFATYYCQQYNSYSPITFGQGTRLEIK
B2: antibody 2619 (antibody, V domains shown)
VH: EVQLVESGGGLVQPGRSLRLSCAASGFTFDDYAMHWVRQAPGKGLEWVSGISWNSGSIGYADSVKGRFTLSRDNAKNSLFLQMDSLRAEDTALYYCAKDVSYRSGSYYRFWGGSGSWGQGTLVTVSS
VL: DIQMTQSPSSLSASVGDRVTITCRASLSIRSYLNWYQQKPGKPPKLLIYAASSLQSGVPSRFSGSGSGTDFTLTISSLQPEDFATYYCQQSYSTPLTFGGGTKVEIK
B3: antibody 2729 (antibody, V domains shown)
VH: QVTLKESGPVLVKPTETLTLTCTVSGFSLSNARMGVSWIRQPPGKALEWLAHIFSNDEKSYSTYLKSRLTISKDSSKSQVVLTMTIMDPVDTATYYCARTAGRYSSRWGHYYYYMDVWGKGTTVTVSS
VL: NFMLTQPHSVSESPGKTVTISCTGSNGSIASNFMQWYQQRPGSAPTIVIYEDNQRPSGVPDRFSGSIDGSSNSASLTISGLKTEDEADYYCQSYDSSDSDLGVFGGGTKLTVL
B4: antibody 1589 (antibody, V domains shown)
VH: EVQLVESGGGLIQVGGSLRLSCAASGLTVTSNYMNWVRQGPGKGLEWVSLIYSGGTTYYADSVKGRFTISRDDSKNTLYLQMNSLRAEDTAVYYCARPIVGARSGMDVWGQGTAVTVSS
VL: DIQMTQSPSSLSASVGDRVTITCQASQDINKYLNWYQQKPGKAPKLLIYDASNLETGVPSRFSGSGSGTDFTFTISSLQPEDLATYYCHQFDNLPGTFGGGTKVEIK
B5: antibody 3091 (antibody, V domains shown)
VH: QMQLVQSGPEVKKPGTSVKVSCKASGFTFSSSAVQWVRQARGQGLEWIGWIVVGSGNANYAQKLQERVSITRDMSTSTAYMELSSLRPEDTAVYYCAAPHCSRTICHDGFDMWGQGTMVTVSS
VL: EIVLTQSPGTLSLSPGERATLSCRASQSVRSSYLAWYQQKPGQAPRLLMFVASSRATGIPDRFSGSGSGTDFTLTISRLEPEDFAVYYCQQYDTSPWTFGQGTKVEIK
B6: antibody 2788 (antibody, V domains shown)
VH: QVQLVQSGAEVKKPGASVKVSCKVSGYTLIELSMHWVRQAPGKGLEWMGGFDPEGAETIYAQKFQGRVTMTEDTSTDTAYMELSSLRSDDTAVYYCATGPAVFAANWFDPWGQGTLVTVSS
VL: QSALTQPPSASGSPGQSVTISCTGTSSDIGNYNNVSWYQQHPGKAPKLMIYDVIKRPSGVPDRFSGSKSGNTASLTVSGLQAEDEADYYCSSYAGKSYVFGTGTKVTVL
B7: antibody 2854 (antibody, V domains shown)
VH: QVQLVQSGAEVKKPGSSVKVSCKASGGTFSSYAISWVRQAPGQGLEWMGGIIPIFHTANYAQKFQGRVTITADESTSTTYVELSSLRSEDTAMYYCATLPITIFGEEYSFDNWGQGTLVTVSS
VL: DVVMTQSPLSLPVTLGQPASISCRSSQSLVHSDGNTYLSWFQQRPGQSPRRLIYKVSDRDSGVPDRFSGSGSGTDFTLKISRVEAEDVGIYYCMQGTHWPPLTFGGGTKVEIK
B8: antibody 1238 (antibody, V domains shown)
VH: QVQLVQSGSELKKPGASVKVSCKASGYTFTNYGMNWVRQAPGQGLEWMGWINTNTGNPTNAQGFTGRFVFSLDTSVSTAYLQINSLKGEDTAVYYCARVADTGEMDVWGQGTTVTVSS
VL: SYELTQPPSVSVSPGQTARITCSGDALPKQYAYWYQQKPGQAPVLVIYKDSERPSGIPERFSGSSSGTTVTLTISGVQAEDEADYYCQSADSSGSYNWVFGGGTKLTIL
B9: antibody 2019 (antibody, V domains shown)
VH: QVQLVESGGGVVQPGGSLSLSCAASGLSFSSYGMHWVRQAPGKGLEWVAFIRYDVSNKYYADSVKGRFTISRDNSKNTLYLQMNSLRVEDTAVYYCATWAPLDDGMDVWGQGTTVTVSS
VL: B8 VL with S51T, A90G, S95T, Y96F, N97Y, W98V, I108V
B10: antibody 2793 (antibody, V domains shown)
VH: QVQLVQSGAEVKKPGASVKVSCKVSGFTLPELSIHWVRQAPGKGLEWMGGFDPEDAKTIYAQKFQGRVTMTEDTSTDIAYMELNSLRSDDTAVYYCATGSPFGVVGNWLDPWGQGTLVTVSS
VL: QSALTQPASVSGSPGQSITISCTGTSSDVGDFSYVSWYQQHPGKAPKLMIYEVTKRPSGVSNRFSGSKSGNTASLTISGLQTEDEADYYCTSYTSSRLVLFGGGTKLTVL
B11: antibody 2024 (antibody, V domains shown)
VH: QVQLVQSGAEVKKPGASVKVSCKVSGYTLIELSMHWVRQAPGKGLEWMGGFDPEEGETIYAQKFQGRVTMTEDTSTDTAYMELSSLRSEDTAVYYCTTSPPVGATGAWFDPWGQGTLVTVSA
VL: SYVLTQPPSVSVAPGKTARITCGGNNIGSKSVHWYQQKPGQAPVLVVYDDSDRPSGIPERFSGSNSGNTATLTISGLQAEDEADYYCSSYTSSSTVVFGGGTKLTVL
B12: antibody 2866 (antibody, V domains shown)
VH: QVQLVQSGAEVKKPGSSVKVSCKASGGTFSSYSISWVRQAPGQGLEWMGGLAPIFHTPNYAQKFQGRVTITADESTSTAYMELSSLRSEDTAVYYCARVAGAGWGVYGAFDYWGQGTLVTVSS
VL: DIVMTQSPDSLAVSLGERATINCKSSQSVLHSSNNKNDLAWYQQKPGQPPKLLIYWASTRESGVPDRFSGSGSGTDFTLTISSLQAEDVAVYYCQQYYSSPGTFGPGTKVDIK

In the first assay the target is T1, Receptor-binding domain (RBD) of the SARS-CoV-2 spike protein, WA01/2020 strain (SARS-CoV-2, WA01/2020 strain, UniProt P0DTC2 319-541). Description: SPR (Biacore 8K), antigen immobilized, antibody injected. For orientation: In SPR one partner is held on a chip, and binding of the other changes the refractive index at the surface.
With B1, binding was characterised by a dissociation constant (Kd) of 0.057 nM.
In turn, B2 yielded a Kd of 0.105 nM.
The molecule B3 yielded a Kd of 0.015 nM.
Molecule B4 displayed a Kd of under 0.0047 nM.
B5 displayed a Kd of 0.004 nM.

A further assay addresses T2, SARS-CoV-2 spike protein on live virus, strain USA-WA1/2020 (SARS-CoV-2, WA01/2020 strain, UniProt P0DTC2 14-1273). Briefly: cell-based or functional assay.
With B6, the “Live Neut, WA1/2020 IC50 (pM)” value was found to be 117 pM.
As for B1, the “Live Neut, WA1/2020 IC50 (pM)” value was determined as 51 pM.
As to B2, the “Live Neut, WA1/2020 IC50 (pM)” value turned out to be 118 pM.
On the same count and under the same terms, the result for B7 reads 164 pM.
On the same count and under the same terms, the result for B8 reads 400 pM; that for B9, 107 pM.
Turning to B3, the “Live Neut, WA1/2020 IC50 (pM)” value was found to be 111 pM.
On the same count and under the same terms, under B4 stands 43 pM.
Same read-out and setting: under B10 stands 77 pM.
With B5, the “Live Neut, WA1/2020 IC50 (pM)” value stood at 8 pM.
Same read-out and setting: under B11 stands 95 pM; under B12, 649 pM.

The next assay has as its target SARS-CoV-2 spike protein on live virus, B1.351 (beta variant) (SARS-CoV-2, B1.351). Briefly: cell-based or functional assay.
As to B1, the “Live Neut, B1.351 IC50 (pM)” value was 135 pM.
For B4, the “Live Neut, B1.351 IC50 (pM)” value turned out to be 167 pM.
On the same count and under the same terms, under B5 stands 172 pM.

Another assay has as its target T1, Receptor-binding domain (RBD) of the …. Description: dose-response ELISA on WT RBD. On the technique in general: In an ELISA, binding on a coated surface is turned into a signal by an enzyme label.
In the case of B2, the concentration for a half-maximal effect (EC50 (read off the curve)) is about 0.02 µg/mL.
Regarding B3, the “EC50 (read off the curve)” value was about 0.01 µg/mL.

Another assay shares this target. Briefly: dose-response ELISA on coated antigen.
As for B1, it took 0.021 nM to reach a half-maximal effect (EC50).
Still for that read-out and setting: the result for B2 reads 0.037 nM.
The same measure, in the same setting: under B3 stands 0.037 nM; under B4, 0.036 nM; under B5, 0.03 nM.

For the next assay the target is unchanged. Briefly: SPR (Biacore), footnote to the Kd of < 4.7* pM.
B4 gave a koff of under 1e-06 s⁻¹.

For a further assay the target is unchanged. Description: ELISA, antibody at 0.1 ug/mL.
Turning to B6, the binding result is given as “no binding (tested: 0.1 ug/mL)”.
As to B7, the binding result is on record as “no binding (tested: 0.1 ug/mL)”.
B8: the binding result is reported as “no binding (tested: 0.1 ug/mL)”.
With B9, the binding result is reported as “no binding (tested: 0.1 ug/mL)”.
B10: the binding result is recorded as “no binding (tested: 0.1 ug/mL)”.
The same measure, in the same setting: the result for B11 reads “no binding (tested: 0.1 ug/mL)”; that for B12, “no binding (tested: 0.1 ug/mL)”.

The target of a further assay is T2, SARS-CoV-2 spike protein on live virus, …. Briefly: cell-based or functional assay. The source holds these as a separate data set.
As for B1, the “IC50, live virus micro-neutralization WA1/2020” value is 0.041 nM.
The same measure, in the same setting: the result for B3 reads 0.272 nM.
Same read-out and setting: under B4 stands 0.0667 nM.
Still for that read-out and setting: the result for B5 reads 0.055 nM.

For another assay, the target named is T1, Receptor-binding domain (RBD) of the …. Description: ELISA, antibody blocks RBD binding to human ACE2.
B1 gave a half-maximal inhibitory concentration (IC50) of 0.692 nM.
Same read-out and setting: under B2 stands 0.479 nM; under B3, about 0.66 nM.
Still for that read-out and setting: under B4 stands 0.52 nM; under B5, 0.56 nM.

The next assay addresses SARS-CoV-2 spike protein, B1.1.7 (alpha variant), borne on lentiviral pseudovirus (SARS-CoV-2, B1.1.7). Briefly: cell-based or functional assay.
For B1, the “Pseudo Neut, B1.1.7 IC50 (pM)” value is 667 pM.
On the same count and under the same terms, the result for B2 reads about 7 pM; that for B3, 93 pM; that for B4, 133 pM.
Regarding B5, the “Pseudo Neut, B1.1.7 IC50 (pM)” value was about 13 pM.

The next assay addresses SARS-CoV-2 spike protein, B1.351 (beta variant), borne on lentiviral pseudovirus (SARS-CoV-2, B1.351). Briefly: cell-based or functional assay.
Turning to B1, the “Pseudo Neut, B1.351 IC50 (pM)” value was 2830 pM.
As to B3, the “Pseudo Neut, B1.351 IC50 (pM)” value came to 793 pM.
B4: the “Pseudo Neut, B1.351 IC50 (pM)” value is 137 pM.
B5: the “Pseudo Neut, B1.351 IC50 (pM)” value was found to be 78 pM.
